One series addresses T1, MBP-OsMS188 (Oryza sativa (rice; Nipponbare?), UniProt Q7XQN1 1-372).
T1 sequence: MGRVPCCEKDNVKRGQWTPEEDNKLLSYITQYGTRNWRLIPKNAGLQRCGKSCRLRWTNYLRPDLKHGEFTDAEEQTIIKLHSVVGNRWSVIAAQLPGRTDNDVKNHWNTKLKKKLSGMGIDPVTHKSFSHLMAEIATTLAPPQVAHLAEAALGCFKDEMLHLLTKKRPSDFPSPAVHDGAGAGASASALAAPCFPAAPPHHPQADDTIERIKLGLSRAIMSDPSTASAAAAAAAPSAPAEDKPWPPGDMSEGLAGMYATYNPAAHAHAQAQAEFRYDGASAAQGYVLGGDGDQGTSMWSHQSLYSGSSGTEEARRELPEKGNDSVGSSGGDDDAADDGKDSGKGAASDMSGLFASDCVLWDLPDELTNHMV
Briefly: EMSA; unlabelled probe competes; LightShift Chemiluminescent EMSA Kit (Thermo); buffer, salt, pH and temperature not stated. As to conditions: protein: recombinant; label: biotin; blunt.

A further series addresses MBP-TDR (Oryza sativa (rice; Nipponbare?), UniProt Q6YUS3 1-552). Briefly: EMSA; unlabelled probe (5- to 200-fold) competes; LightShift Chemiluminescent EMSA Kit (Thermo); buffer, salt, pH and temperature not stated. Background: In EMSA bound probe runs differently from free probe, usually more slowly.
The target in another series is T2, MBP-EAT1 (Oryza sativa (rice; Nipponbare?), UniProt Q7X8R0 1-464).
T2 sequence: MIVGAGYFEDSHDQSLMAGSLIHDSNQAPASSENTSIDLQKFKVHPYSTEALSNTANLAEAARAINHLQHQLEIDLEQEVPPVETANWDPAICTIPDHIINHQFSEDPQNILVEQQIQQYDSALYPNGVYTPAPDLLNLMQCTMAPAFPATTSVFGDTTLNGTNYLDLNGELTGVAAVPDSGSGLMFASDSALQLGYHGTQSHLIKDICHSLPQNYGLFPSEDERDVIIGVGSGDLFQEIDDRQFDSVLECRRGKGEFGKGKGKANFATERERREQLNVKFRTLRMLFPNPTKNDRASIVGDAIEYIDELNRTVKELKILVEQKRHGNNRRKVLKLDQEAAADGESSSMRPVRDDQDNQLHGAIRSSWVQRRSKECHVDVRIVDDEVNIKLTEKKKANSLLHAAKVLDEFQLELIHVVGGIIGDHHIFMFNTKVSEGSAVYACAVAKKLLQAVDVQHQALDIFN
Kind of series: EMSA; shifted band not reduced by unlabelled probe; authors conclude no direct binding; LightShift Chemiluminescent EMSA Kit (Thermo); buffer, salt, pH and temperature not stated. To be noted: protein: recombinant; chain copies: 2; label: biotin; blunt.

The next series has as its target T3, MBP-bHLH142 (Oryza sativa (rice; Nipponbare?), UniProt Q5JNS0 1-379).
T3 sequence: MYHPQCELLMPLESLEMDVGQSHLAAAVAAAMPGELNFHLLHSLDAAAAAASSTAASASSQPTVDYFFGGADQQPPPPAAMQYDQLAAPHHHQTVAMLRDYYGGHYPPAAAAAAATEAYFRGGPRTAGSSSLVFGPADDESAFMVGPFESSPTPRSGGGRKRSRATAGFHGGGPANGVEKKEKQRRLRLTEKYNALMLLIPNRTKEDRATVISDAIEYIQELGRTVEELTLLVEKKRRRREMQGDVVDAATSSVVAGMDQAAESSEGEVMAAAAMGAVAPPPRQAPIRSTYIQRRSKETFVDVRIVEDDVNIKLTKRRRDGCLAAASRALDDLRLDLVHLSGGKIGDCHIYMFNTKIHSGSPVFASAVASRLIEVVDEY
Described as above. To be noted: protein: recombinant; chain copies: 2; label: biotin; blunt.

B1: OsPKS1 promoter probe (dsDNA)
DNA 1: GCAAAAATGCAGGGTAAAACCAAAGAAGGGTGGAAGGAATGAACCTTCTGCTCCCCCC
DNA 2: GGGGGGAGCAGAAGGTTCATTCCTTCCACCCTTCTTTGGTTTTACCCTGCATTTTTGC
Regarding B1, the binding result with MBP-OsMS188 is recorded as “binds”.

B2: CYP703A3 promoter probe (dsDNA)
DNA 1: GATATCACATGACTTGTACATAATGCCTAAAATGTGGATATCTGACCAGGTGCTTGGTG
DNA 2: CACCAAGCACCTGGTCAGATATCCACATTTTAGGCATTATGTACAAGTCATGTGATATC
For B2, in the series with MBP-OsMS188, the binding result is on record as “binds”.

B3: OsPKS2 promoter probe (dsDNA)
DNA 1: TACCTGCTCTCCACCAACCATTCTTTCCATGCATTCGTTGCCTCTCAACTGCACCAGCT
DNA 2: AGCTGGTGCAGTTGAGAGGCAACGAATGCATGGAAAGAATGGTTGGTGGAGAGCAGGTA
Take B3: in the series with MBP-OsMS188, the binding result was “binds”.

B4: CYP704B2 promoter probe (dsDNA)
DNA 1: AATAGCCTATTCAGATGAAGTAGAATTCAGGTGAAGTAGAAACCAACTACTTTGGGTTC
DNA 2: GAACCCAAAGTAGTTGGTTTCTACTTCACCTGAATTCTACTTCATCTGAATAGGCTATT
In the case of B4, in the series with MBP-OsMS188, the binding result was “binds”.

B5: DPW promoter probe (dsDNA)
DNA 1: AGGGAACTGAATCTTTTGCATGAACCACTGCATTTCCAAGAAGTGCACGAGCTTTGCA
DNA 2: TGCAAAGCTCGTGCACTTCTTGGAAATGCAGTGGTTCATGCAAAAGATTCAGTTCCCT
In the case of B5, the binding result in the series with MBP-OsMS188 is “binds”.

B6: ABCG15 promoter probe (dsDNA)
DNA 1: AGTCTGCTTGGCGCTCTCTCTCTGAACCTGTCACTCTTTTTTTCTGTGTCT
DNA 2: AGACACAGAAAAAAAGAGTGACAGGTTCAGAGAGAGAGCGCCAAGCAGACT
As to B6, the binding result with MBP-OsMS188 was “binds”.

B7: OsMS188 promoter probe (dsDNA)
DNA 1: GAGAATGCATTTGGTGGTCGTGTGTTGTTTGTAACAACTGGGGAGC
DNA 2: GCTCCCCAGTTGTTACAAACAACACACGACCACCAAATGCATTCTC
As for B7, the figures for the binding result with MBP-TDR, with MBP-EAT1 and with MBP-bHLH142 were “binds”, “no binding” and “no binding”, respectively.
